# Patent US20250122242A1 (WISCONSIN ALUMNI RESEARCH FOUNDATION, published 2025)
# Experiments:
# [1] = molecular target: Aβ42-T7n (amyloid-β42 fused through a GGSGG linker to the N-terminal half of split T7 RNA polymerase); experiment: cell-based or functional assay
# [2] = molecular target: T1, hIAPP-T7n (human islet amyloid polypeptide fused through a GGSGG linker to the N-terminal half of split T7 … (human)); experiment: cell-based or functional assay
# T1 chain: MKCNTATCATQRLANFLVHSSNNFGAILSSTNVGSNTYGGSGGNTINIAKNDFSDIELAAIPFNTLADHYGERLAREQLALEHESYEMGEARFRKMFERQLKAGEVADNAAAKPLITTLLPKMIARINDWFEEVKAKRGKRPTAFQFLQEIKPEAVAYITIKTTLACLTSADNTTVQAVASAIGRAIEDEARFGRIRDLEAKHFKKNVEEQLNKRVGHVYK
Binder,propagation of clonal SP on hIAPP against Aβ42 selection cells [2] [fold],further results
cyclo(CKVWQLL) (not fully specified; printed as cyclo-CKVWQLL),,"fold phage propagation on E. coli encoding the Aβ42-T7n selection, against scrambled control [1]: ~300 fold"
cyclo(CDLGVFR) (not fully specified; printed as cyclo-CDLGVFR) [cyclo-CDLGVFR (SEQ ID NO:68) encoded on selection phage as SICLOPPS precursor],~1000,
cyclo(CRCVFSG) (not fully specified; printed as cyclo-CRCVFSG; cysteine pairing not given here) [cyclo-CRCVFSG (SEQ ID NO:69) encoded on selection phage as SICLOPPS precursor],~10,
cyclo(CKVWQLL) (not fully specified; printed as cyclo-CKVWQLL) [cyclo-CKVWQLL (SEQ ID NO:30) encoded on parent selection phage as SICLOPPS precursor],,"fold phage propagation on E. coli encoding the Aβ42-T7n selection, against SP carrying scrambled control cyclo-CVQWLKL [1]: ~500 fold"
